From patent US8258279B2, “Isolated nucleic acids encoding soluble corticotropin releasing factor receptor type 2 (sCRFR2) polypeptides” (Research Development Foundation, priority 2005, dated 2012)
“Also recorded” adds a separate entry of the source.

B1: sCRFR2α: 143 amino acid soluble splice variant of mouse CRF receptor type 2α lacking exon six (protein)
chain: MDAALLLSLLEAQLQPGAGRRAAPGRLGSAPGPRRSLHLLQHDLGPDRDLLATERTRSPSRETVPRVLQWHQVQHDPECLQRVPGERDLGLKGQLLTLRTHFG

Key:
anti-sCRFR2α serum = assay: Immunohistochemistry, specificity by preincubation of antiserum with synthetic immunogen; settings: mouse brain sections; antiserum preincubated with immunogen
Method: Immunohistochemistry. Adult male C57B6J mice (Jackson Laboratories) and Sprague-Dawley albino rats (Harlan Sprague-Dawley) were anesthetized with chloral hydrate (350 mg/kg, ip) and perfused with Zamboni's fixative (Bittencourt et al., 1999), followed by 0-4 hr. post-fixation. Regularly spaced (1-in-4) series of 30 μm thick frontal sections throughout the brain were prepared for nickel-enhanced avidin-biotin-immunoperoxidase localization of sCRFR2α-ir using Vectastain Elite reagents (Vector Laboratories, Burlingame, Calif.). Primary sCRFR2α antisera were adsorbed against the carrier, affinity purified and used at a dilution of 1:2000. Specificity of immunostaining was evaluated using primary antisera preincubated overnight at 4° C. with 0-300 μM synthetic immunogen. Labeling was also evaluated in mutant mice deficient in either or both CRFRs (Smith et al., 1998; Bale et al. 2000). Detailed description of the fluorescence immunocytochemical analysis of COSM6 cells transfected with sCRFR2α can be found in the supporting text.
Further support for the specificity of labeling are observations that all immunolocalizations persisted in CRFR1- and/or CRFR2-deleted mice; note that the targeting construct used for generating each of the existing receptor-knockout lines would be expected to spare the sCRFR2α coding region (Smith et al., 1998; Timpl et al., 1998; Bale et al., 2000).

[1] = test system: rabbit anti-sCRFR2α (aa 113-143); assay: sCRFR2α radioimmunoassay (RIA); type: binding; settings: anti-sCRFR2α at 1/300,000; synthetic sCRFR2α (113-143) as standard
Excerpt: FIGS. 3A-3C. A highly specific antiserum raised in rabbit using a synthetic peptide fragment encoding the unique C-terminal tail of mouse sCRFR2α protein (aa 113-143) was used to develop a sCRFR2α radioimmunoassay, used for immunoblot analysis and for immunocytochemistry. FIG. 3A is a western immunoblot of mouse sCRFR2α isolated from the medium of COS-M6 cells transiently transfected with sCRFR2αFLAG construct reacted with anti-sCRFR2α-(113-143) serum (left panel) or monoclonal M2 anti-FLAG (right panel). Lanes 1, 2, and 3 correspond to 0.1, 1.0, and 10 μl of sCRFR2α-FLAG extract, respectively. FIG. 3B, Displacement of [^125I]Tyr^113 sCRFR2α (aa 113-143) binding to rabbit anti-sCRFR2α (aa113-143) by synthetic sCRFR2α (aa 113-143) and by purified COS-M6 expressed sCRFR2α (aa 113-143)-FLAG. FIG. 3C, Immunofluorescence staining of COS-M6 cells transiently transfected with mouse sCRFR2α construct visualized with the anti-sCRFR2α (aa 113-143) serum followed by a Cy3-conjugated secondary antibody (FIG. 3C(b)). The slides were counterstained with DAPI to visualize both transfected and non transfected cells (FIG. 3C(a)).
Radio-Immuno Assays (RIA). […]

[2] = test system: activation by Ucn 1 of ERK1/2-p42, 44 in CATH.a cells; assay: Extracellular receptor kinase 1/2 (ERK1/2) assay; type: cell-based; settings: Ucn 1 10 nM, sCRFR2α 0.4 or 4 nM, 5 min
Method: Luciferase reporter containing a fragment of the CRE promoter of the EVX1 gene was cotransfected into 293T cells with CRFR2α expression vectors. Luciferase activity was measured following treatment (4 h) with 0.0001-100 nM Ucn 1 or CRF, in the presence or absence of 0.1 nM sCRFR2α. Assays were normalized to cotransfected β-galactosidase activity. The representative means of six replicates from one experiment is shown in the graph. FIG. 5B, Equilibrated CATH.a cells were treated with Ucn 1 (10 nM) with or without sCRFR2α (0.4 or 4 nM). After 5 min of receptor stimulation, cell lysates were harvested and subjected to SDS-PAGE immunoblot analysis using phospho-ERK1/2-p42, 44 antibody and ERK2-p44 antibody. The ERK activation was calculated by normalizing the levels of phosphorylated ERK1/2-p42, 44 to total ERK2-p44. […]
Extracellular receptor kinase 1/2 (ERK1/2) assay. […] Cells were harvested immediately and analyzed for phosphorylated ERK1/2-p42, 44, as previously described (Chen et al., 2005).
(§1) To delineate the possible functions of sCRFR2α, the inventors studied its effects on signaling by CRF family ligands. […] Because the urocortins activate MAPK signaling (Brar et al., 2002), the inventors measured the ability of sCRFR2α to inhibit the activation by Ucn 1 of ERK1/2-p42, 44 in CATH.a cells, which endogenously express CRFR1 and CRFR2α.

CRF = target: T1, CRF (Mus musculus, UniProt Q60748); assay: Radioreceptor assay, competitive displacement of [125I-DTyr0]-astressin bound to sCRFR2α; type: binding; settings: range in parentheses in the next cell
T1 construct: A cDNA corresponding to amino acids 20-143 was generated by PCR; made in house; host or cells: E. coli
Method: (§2) Radioreceptor assays. The soluble protein, purified either from COS M6 cell media or E. coli was incubated in triplicate wells with [^125I-DTyr^O]-astressin and increasing concentration of unlabeled peptides as described (Perrin et al., 2003).
(§3) The interactions of the sCRFR2α with CRF family ligands were assessed by radioreceptor assay using competitive displacement of [^125I-D Tyr^o]-astressin bound to sCRFR2α.

Astressin = target: T2, Astressin (Mus musculus, UniProt Q60748); assay: as above; type: binding; settings: range in parentheses in the next cell
T2 construct: A cDNA corresponding to amino acids 20-143 was generated by PCR; made in house; host or cells: E. coli
Method: as §2, §3

mUcn3 = target: T3, mUcn3 (Mus musculus, UniProt Q60748); assay: as above; type: binding
T3 construct: A cDNA corresponding to amino acids 20-143 was generated by PCR; made in house; host or cells: E. coli
Method: as §2, §3

mUcn2 = target: T4, mUcn2 (Mus musculus, UniProt Q60748); assay: as above; type: binding; settings: range in parentheses
T4 construct: A cDNA corresponding to amino acids 20-143 was generated by PCR; made in house; host or cells: E. coli
Method: as §2, §3

rUcn1 = target: T5, rUcn1 (Mus musculus, UniProt Q60748); assay: as above; type: binding; settings: range in parentheses in the next cell
T5 construct: A cDNA corresponding to amino acids 20-143 was generated by PCR; made in house; host or cells: E. coli
Method: as §2, §3

[3] = test system: cAMP response to Ucn 1 and CRF in HEK293T cells transfected with mouse CRFR2α; assay: CRE-luciferase reporter (EVX1) assay of the cAMP response; type: cell-based; settings: 4 h, 0.0001-100 nM Ucn 1 or CRF, 0.1 nM sCRFR2α
Method: Luciferase reporter containing a fragment of the CRE promoter of the EVX1 gene was cotransfected into 293T cells with CRFR2α expression vectors. Luciferase activity was measured following treatment (4 h) with 0.0001-100 nM Ucn 1 or CRF, in the presence or absence of 0.1 nM sCRFR2α. Assays were normalized to cotransfected β-galactosidase activity. The representative means of six replicates from one experiment is shown in the graph. FIG. 5B, Equilibrated CATH.a cells were treated with Ucn 1 (10 nM) with or without sCRFR2α (0.4 or 4 nM). After 5 min of receptor stimulation, cell lysates were harvested and subjected to SDS-PAGE immunoblot analysis using phospho-ERK1/2-p42, 44 antibody and ERK2-p44 antibody. The ERK activation was calculated by normalizing the levels of phosphorylated ERK1/2-p42, 44 to total ERK2-p44. The representative of means of triplicates from one experiment is shown in the graph. *, P<0.05 vs. vehicle treatment, #, P<0.05 vs. Ucn 1 treatment, UD=undetected.
Transient transfections and luciferase assay. […]
as §1

Molecule | concentration blocking immunolabeling throughout the brain on pre-incubation of the antiserum (anti-sCRFR2α serum) [µM] | EC50 in sCRFR2α RIA [1] [pg per tube] | inhibition of induction of phosphorylated ERK by Ucn 1 [2] | Inhibitory binding constants, Ki, CRF (CRF) | Inhibitory binding constants, Ki, Astressin (Astressin) | Inhibitory binding constants, Ki, mUcn3 (mUcn3) | Inhibitory binding constants, Ki, mUcn2 (mUcn2) | Inhibitory binding constants, Ki, rUcn1 (rUcn1) | inhibition of the cAMP response to Ucn 1 and CRF (CRE luciferase activity) [3]
sCRFR2α (113-143): synthetic peptide fragment encoding the unique C-terminal tail (aa 113-143) of mouse sCRFR2α, used as immunogen and RIA standard (YRIALIVNYLGHCVSVVALVAAFLLFLVLRS; soluble splice isoform sCRFR2alpha; UniProt Q60748 113-143, looked up, fragment) | ≥ 30 |  |  |  |  |  |  |  | 
B1 |  | ~5 | inhibits the induction of phosphorylated ERK; also recorded: interferes with the induction | nanomolar affinities | nanomolar affinities | much lower | much lower | nanomolar affinities | inhibit, in a dose dependent manner; also recorded: interferes with the induction of cAMP
